Literature values as cited in publication PMC3472031.

Legend:
SOS-A peptide = SOS-A peptide (UniProt Q07889)
SOS-E peptide = SOS-E peptide (UniProt Q07889)
[1] = molecular target: EspFU peptide (Escherichia coli) (UniProt P0DJ88); assay: ITC
EspFU (Escherichia coli) = EspFU (Escherichia coli) (UniProt P0DJ88)
[2] = molecular target: EspFU R475 R475 (fifth 47-residue repeat) (Escherichia coli O157:H7) (UniProt P0DJ88)

Grb2 (from UniProt P62993)
Kd (SOS-A peptide): 54000 nM
Kd (SOS-E peptide): 3500 nM

IRTKS SH3 (from UniProt Q9UHR4)
Kd [1]: 500 nM

N-WASP 193-501 (from UniProt O00401)
Kd (EspFU (Escherichia coli)): 35 nM

N-WASPC 193-501 (from UniProt O00401)
Kd [2]: 35 nM
